Data: patent publication US20220409668A1, “GENETICALLY MODIFIED HUMAN STEM CELL EXPRESSING A MUTANT HUMAN CYTOCHROME P450 2B6 PROTEIN AND USE THEREOF IN THE TREATMENT OF CANCER” (ASSISTANCE PUBLIQUE-HOPITAUX DE PARIS, priority 2019, published 2022)

Assay: affinity of cytochrome P450 2B6 protein for cyclophosphamide (CPA) and Vmax
Format: biochemical, human
From the text: In a particularly advantageous embodiment, said variants and fragments have an affinity for CPA that is identical, substantially identical or greater than that of the mutant human cytochrome P450 2B6 protein (CYP2B6*) of SEQ ID No. 1. Methods making it possible to assay said activity and said affinity are well known to a person skilled in the art and are particularly described in Nguyen et al., Mol. Pharmacol., 2008, 73: 1,122-1,133.

B1: CYP2B6*: mutant human cytochrome P450 2B6 protein of SEQ ID No. 1 with 114V, 199M and 477W residues (protein, listed as Homo sapiens)
chain: MELSVLLFLALLTGLLLLLVQRHPNTHDRLPPGPRPLPLLGNLLQMDRRGLLKSFLRFREKYGDVFTVHLGPRPVVMLCGVEAIREALVDKAEAFSGRGKIAMVDPFFRGYGVVFANGNRWKVLRRFSVTTMRDFGMGKRSVEERIQEEAQCLIEELRKSKGALMDPTFLFQSITANIICSIVFGKRFHYQDQEFLKMMNLFYQTFSLISSVFGQLFELFSGFLKYFPGAHRQVYKNLQEINAYIGHSVEKHRETLDPSAPKDLIDTYLLHMEKEKSNAHSEFSHQNLNLNTLSLFFAGTETTSTTLRYGFLLMLKYPHVAERVYREIEQVIGPHRPPELHDRAKMPYTEAVIYEIQRFSDLLPMGVPHIVTQHTSFRGYIIPKDTEVFLILSTALHDPHYFEKPDAFNPDHFLDANGALKKTEAFIPFSLGKRICLGEGIARAELFLFFTTILQNFSMASPVAPEDIDLTPQECGWGKIPPTYQIRFLPR
affinity for CPA relative to the wild-type protein (CYP2B6 WT) (fold greater than CYP2B6 WT, substitutions I114V, L199M, V477W): more than 8 times
Vmax compared with wild-type protein (versus CYP2B6 WT, substrate CPA): same Vmax
